The text below walks through data of patent US20250027945A1 (University of California, published 2025).

Test [1] concerns the target T1, human RYK on the surface of human tumor cell lines (human, UniProt P34925 46-607).
T1 construct: whole, on cells; Endogenous expression
Briefly: flow cytometry, T47-D cells (breast), 5 ug/ml 2-D11-Alexa647. As for the experimental part:
(§1) Table 1 provides the flow cytometry data on various cancer cell lines stained with fluorochrome-conjugated 2-D11, as depicted in FIG. 8. The name of each cell line is listed in the first column and the tissue of origin is listed in the second column. Binding of the 2-D11 mAb to human RYK was assessed by flow cytometric staining and analysis by staining on ice for 20 minutes with 5 μg/ml of 2-D11 anti-human RYK-Alexa647 conjugated mAb or equal amounts of isotype matched control mAb, washed, and analyzed. The median fluorescence intensity (MFI) of 2-D11 stained cells is listed in the middle column and the MFI of isotype control stained cells are listed in the in the adjacent column. Cell lines were scored as “++”, “+”, or neg (unmarked with “+”) lines based on the ratio of median fluorescence intensity (MFI) of stained cells relative to the MFI of isotype control stained cells (MFIR).
(§2) The name of each cell line is listed in the first column and the tissue of origin is listed in the second column. Binding of the 2-D11 mAb to human RYK was assessed by flow cytometric staining and analysis by staining on ice for 20 minutes with 5 μg/ml of 2-D11 anti-human RYK-Alexa647 conjugated mAb or equal amounts of isotype matched control mAb, washed and analyzed. […]
(In general: In flow cytometry, cells or beads pass a laser one at a time.)

For test [2], the target named is T1, human RYK on the surface of human tumor …. Briefly: flow cytometry, SW948 cells (colon), 5 ug/ml 2-D11-Alexa647; line unmarked (no staining). How it is done: as §1, §2
Test [3] shares this target. Briefly: flow cytometry, H446 cells (lung), 5 ug/ml 2-D11-Alexa647. As for the experimental part:
as §1, §2

The target is the same in test [4]. Briefly: flow cytometry, A673 cells (Ewings sarcoma), 5 ug/ml 2-D11-Alexa647. As for the experimental part: as §1, §2
Test [5] shares this target. Briefly: flow cytometry, U937 cells (monocyte cancer), 5 ug/ml 2-D11-Alexa647; line unmarked (no staining). As for the experimental part:
as §1, §2

For test [6] the target is unchanged. Briefly: flow cytometry, NALM6 cells (ALL), 5 ug/ml 2-D11-Alexa647; line unmarked (no staining). How it is done: as §1, §2
Test [7] has the same target. Briefly: flow cytometry, HS683 cells (brain), 5 ug/ml 2-D11-Alexa647. As for the experimental part:
as §1, §2

The target is the same in test [8]. Briefly: flow cytometry, HELA cells (ovarian as printed), 5 ug/ml 2-D11-Alexa647; line unmarked (no staining). How it is done:
as §1, §2

The target is the same in test [9]. Briefly: flow cytometry, CAPAN-2 cells (pancreas), 5 ug/ml 2-D11-Alexa647; line unmarked (no staining). As for the experimental part: as §1, §2
For test [10] the target is unchanged. Briefly: flow cytometry, NCI H1155 cells (lung), 5 ug/ml 2-D11-Alexa647; line unmarked (no staining). How it is done:
as §1, §2

The target is the same in test [11]. Briefly: flow cytometry, K562 cells (CML), 5 ug/ml 2-D11-Alexa647. How it is done: as §1, §2
For test [12] the target is unchanged. Briefly: flow cytometry, HT29 cells (colon), 5 ug/ml 2-D11-Alexa647. As for the experimental part:
as §1, §2

For test [13] the target is unchanged. Briefly: flow cytometry, DU-145 cells (prostate), 5 ug/ml 2-D11-Alexa647; line unmarked (no staining). How it is done: as §1, §2

T1 sequence (P34925 46-607 limits assumed, form in doubt): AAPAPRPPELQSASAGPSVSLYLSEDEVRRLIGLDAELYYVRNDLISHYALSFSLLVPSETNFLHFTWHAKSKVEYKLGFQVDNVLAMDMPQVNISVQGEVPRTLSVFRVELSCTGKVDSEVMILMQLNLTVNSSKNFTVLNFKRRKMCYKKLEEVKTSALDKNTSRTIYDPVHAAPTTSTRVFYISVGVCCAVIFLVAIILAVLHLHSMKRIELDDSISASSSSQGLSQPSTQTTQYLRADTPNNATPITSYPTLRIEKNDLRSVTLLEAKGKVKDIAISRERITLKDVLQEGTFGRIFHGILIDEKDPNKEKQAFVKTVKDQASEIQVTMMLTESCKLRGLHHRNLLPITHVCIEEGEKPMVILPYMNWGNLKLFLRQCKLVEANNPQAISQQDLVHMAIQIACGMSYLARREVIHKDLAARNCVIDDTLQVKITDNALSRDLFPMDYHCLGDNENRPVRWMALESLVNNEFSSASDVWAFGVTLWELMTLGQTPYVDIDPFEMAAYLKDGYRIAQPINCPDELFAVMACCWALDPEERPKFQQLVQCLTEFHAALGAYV

B1: 2-D11 anti-human RYK mAb (antibody, V domains shown)
VH: QVQLKESGPGLVAPSQSLSITCSVSGFSLNDYGVNWVRQPPGKDLEWLGMIWGDGVTEYNSTLKSRLSISKDNSKSQVFLKMNNLQTEDTARYYCVRQGSGVWFAHWGQGTLVSVSS
VL: DVLVTQTPLSLPVSLGDQASISCRSSQTIVHSNGNTYLEWYLQKPGQSPKLLIYKVSNRFSGVPDRFSGSGSGTDFTLKISRVEAEDLGIYYCFQGSHVPYTFGGGTKLEIK
notes: Mouse hybridoma mAb, kappa light chain, detected with anti-mouse IgG; also called mAb 2-D11; 2-D11 anti-human RYK-Alexa647 conjugated mAb
As for B1, the “MFIR (MFI ratio to isotype control)” value in [1] was determined as 2; in [2], 1.1; in test [3], 2.6; in test [4], 1.5; in [5], 1.2; in test [6] it was 1.3. Besides, the “MFIR (MFI ratio to isotype control)” value in test [7] was 2.5; in [8], 1.1; in [9], 1.3; in [10], 1.3; in [11] it was 1.5; in test [12], 2.2. The “MFIR (MFI ratio to isotype control)” value in test [13] was determined as 1.3.
